This experiment deals with T1, Full-length human His-tagged angiotensin-converting enzyme 2 (ACE2) (human, UniProt Q9BYF1).
T1 construct: also called hACE2
In words: cryo-EM structure. The settings on record: both partners purified.

T1 sequence (Q9BYF1 18-805): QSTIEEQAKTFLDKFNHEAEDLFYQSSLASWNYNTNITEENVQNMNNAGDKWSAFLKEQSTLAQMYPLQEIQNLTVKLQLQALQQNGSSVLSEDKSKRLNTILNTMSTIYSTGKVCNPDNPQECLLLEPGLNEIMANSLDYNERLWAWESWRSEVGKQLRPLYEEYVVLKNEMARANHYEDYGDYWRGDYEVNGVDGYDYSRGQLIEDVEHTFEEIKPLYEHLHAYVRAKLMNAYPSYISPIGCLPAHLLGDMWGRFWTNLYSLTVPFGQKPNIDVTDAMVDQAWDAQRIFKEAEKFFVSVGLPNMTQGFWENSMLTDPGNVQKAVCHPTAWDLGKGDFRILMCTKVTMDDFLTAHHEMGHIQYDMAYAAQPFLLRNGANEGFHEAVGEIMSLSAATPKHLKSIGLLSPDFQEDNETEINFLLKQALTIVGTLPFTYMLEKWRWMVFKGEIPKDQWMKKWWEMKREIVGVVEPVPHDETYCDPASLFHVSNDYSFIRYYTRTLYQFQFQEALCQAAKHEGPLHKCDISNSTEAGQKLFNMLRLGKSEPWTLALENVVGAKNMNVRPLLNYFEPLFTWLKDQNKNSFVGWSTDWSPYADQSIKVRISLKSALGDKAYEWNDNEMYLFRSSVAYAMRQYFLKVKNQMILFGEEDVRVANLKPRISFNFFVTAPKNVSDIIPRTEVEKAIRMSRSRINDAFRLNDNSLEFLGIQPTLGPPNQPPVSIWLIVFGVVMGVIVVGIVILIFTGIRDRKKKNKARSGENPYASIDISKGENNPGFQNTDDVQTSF

B1: Full-length human Flag-tagged SIT1 (SLC6A20) (natural protein)
chain: MEKARPLWANSLQFVFACISYAVGLGNVWRFPYLCQMYGGGSFLVPYIIMLIVEGMPLLYLELAVGQRMRQGSIGAWRTISPYLSGVGVASVVVSFFLSMYYNVINAWAFWYLFHSFQDPLPWSVCPLNGNHTGYDEECEKASSTQYFWYRKTLNISPSLQENGGVQWEPALCLLLAWLVVYLCILRGTESTGKVVYFTASLPYCVLIIYLIRGLTLHGATNGLMYMFTPKIEQLANPKAWINAATQIFFSLGLGFGSLIAFASYNEPSNNCQKHAIIVSLINSFTSIFASIVTFSIYGFKATFNYENCLKKVSLLLTNTFDLEDGFLTASNLEQVKGYLASAYPSKYSEMFPQIKNCSLESELDTAVQGTGLAFIVYTEAIKNMEVSQLWSVLYFFMLLMLGIGSMLGNTAAILTPLTDSKIISSHLPKEAISGLVCLVNCAIGMVFTMEAGNYWFDIFNDYAATLSLLLIVLVETIAVCYVYGLRRFESDLKAMTGRAVSWYWKVMWAGVSPLLIVSLFVFYLSDYILTGTLKYQAWDASQGQLVTKDYPAYALAVIGLLVASSTMCIPLAALGTFVQRRLKRGDADPVA
As for B1, the binding result is “binds”.

These data come from PMC9667838 (Cell Discovery, 2022).
